1 molecule from patent CN107042098A can be followed below.

Assay [1] deals with Myc-GST融合蛋白 (Myc标签与谷胱甘肽融合的蛋白). Nature of the assay: indirect ELISA, Myc-GST coated at 5 μg/mL, HRP anti-His secondary; heat test at 70℃.
Assay [2] deals with Myc-GST融合蛋白 (Myc标签与谷胱甘肽融合的蛋白). Nature of the assay: indirect ELISA, Myc-GST coated at 5 μg/mL, HRP anti-His secondary; heat test at 80℃.
Assay [3] deals with Myc-GST融合蛋白 (Myc标签与谷胱甘肽融合的蛋白). Nature of the assay: indirect ELISA, Myc-GST coated at 5 μg/mL, HRP anti-His secondary; heat test at 90℃. A general note: ELISA stands for enzyme-linked immunosorbent assay.

B1: 抗c-Myc标签单域重链抗体 (anti-c-Myc tag single-domain heavy-chain antibody, SEQ ID NO.:1) (VHH, not shown: small tags and cut ends)
VHH: QLQLVESGGGLVQAGGSLRLSCAVSGFTFSANAMSWVRQAPGKGPEWVSSINRGGASAEYADSVKGRFTISRDDAKNTLYLQMNSLKPEDTALYYCARGNYRGSYFNGPRTYWGRGTQVTVSP
For the molecule B1, the OD450 in assay [1] came out at 1.4 OD450; in assay [2] it was 1.2 OD450; in assay [3] it was 1.1 OD450.
